Publication PMC5072618

Columns and labels:
[1] = biological target: IFI16 (gamma-interferon-inducible protein 16) (human (endogenous in HMVEC-d, HFF, BJAB, BCBL-1)) (UniProt Q16666); test: co-IP; whole cell lysates of KSHV infected HMVEC-d cells electroporated with siBRCA1 (48 h); IP with anti-IFI16 antibody
[2] = biological target: IFI16 (gamma-interferon-inducible protein 16) (human (endogenous in HMVEC-d, HFF, BJAB, BCBL-1)) (UniProt Q16666); test: co-IP; whole cell lysates of KSHV infected HMVEC-d cells (4 h; 30 min, 4 and 24 h for the p300 blot); IP with anti-Ran, anti-IFI16, anti-STING or anti-ASC antibodies; cells untreated or electroporated with siC, sicGAS or siASC

Sequence of UniProt Q16666 (Q16666 whole entry): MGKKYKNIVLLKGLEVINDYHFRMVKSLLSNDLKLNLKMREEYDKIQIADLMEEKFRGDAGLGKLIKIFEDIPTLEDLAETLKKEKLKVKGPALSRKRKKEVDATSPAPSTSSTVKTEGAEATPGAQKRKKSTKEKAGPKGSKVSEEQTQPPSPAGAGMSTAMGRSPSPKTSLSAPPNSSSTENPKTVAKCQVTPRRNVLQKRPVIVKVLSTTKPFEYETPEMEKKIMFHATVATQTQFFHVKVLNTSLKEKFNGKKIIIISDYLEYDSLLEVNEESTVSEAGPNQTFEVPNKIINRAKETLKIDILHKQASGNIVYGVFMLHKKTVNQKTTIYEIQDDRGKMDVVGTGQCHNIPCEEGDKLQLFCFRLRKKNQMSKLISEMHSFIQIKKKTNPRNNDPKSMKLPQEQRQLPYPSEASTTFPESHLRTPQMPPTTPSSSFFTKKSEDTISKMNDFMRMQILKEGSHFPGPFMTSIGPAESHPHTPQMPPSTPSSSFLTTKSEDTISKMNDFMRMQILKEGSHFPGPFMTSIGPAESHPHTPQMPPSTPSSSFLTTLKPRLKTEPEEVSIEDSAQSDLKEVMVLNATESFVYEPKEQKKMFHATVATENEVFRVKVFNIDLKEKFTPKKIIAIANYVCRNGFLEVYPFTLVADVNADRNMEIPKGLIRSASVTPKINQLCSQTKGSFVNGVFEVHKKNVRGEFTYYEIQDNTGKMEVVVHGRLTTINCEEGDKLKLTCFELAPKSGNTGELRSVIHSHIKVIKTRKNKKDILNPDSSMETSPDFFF

reduction of the IFI16-H2B co-precipitate on BRCA1 knockdown [1]: 40%
reduction of the IFI16-H2B co-precipitate on cGAS knockdown [2]: 25%
Substance: histone H2B (from UniProt P62807 1-126) (natural protein)
